Consider 1 molecule from patent US5851983A, “Elastase inhibitory polypeptide and process for production thereof by recombinant gene technology” (Teijin Limited, priority 1987, dated 1998).

Data set [1] has as its target T1, polymorphonuclear leucocyte elastase from human sputum (Homo sapiens, UniProt P08246).
T1 construct: Polymorphonuclear leukocyte elastase from human sputum (EPC Co; Funakoshi Yakuhin); purchased EPC Co. (via Funakoshi Yakuhin); host or cells: human sputum
T1 sequence (P08246 30-267): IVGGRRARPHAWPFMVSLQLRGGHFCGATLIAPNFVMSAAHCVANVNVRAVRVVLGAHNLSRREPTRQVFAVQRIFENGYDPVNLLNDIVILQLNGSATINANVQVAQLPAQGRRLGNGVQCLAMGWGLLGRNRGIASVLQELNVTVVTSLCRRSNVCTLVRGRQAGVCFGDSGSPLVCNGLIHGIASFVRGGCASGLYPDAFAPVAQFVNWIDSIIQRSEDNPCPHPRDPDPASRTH
Nature of the data set: Treatment with polymorphonuclear leucocyte elastase from human sputum (Examples 27, 30). As to conditions: 37° C. The class given is in vitro ADME. The procedure: Polymorphonuclear leucocyte elastase from human sputum (EPC, Funakoshi Yakuhin) and SLPI were separately dissolved in a buffer (0.1M HEPES, 0.1M NaCl, 0.1% PEG 6000, pH 7.5) and the elastase solution was added to the SLPI solution, and the mixture was incubated at 37° C. Samples were taken as time elapsed, and to each sample were added Tris-HCl buffer (pH 6.8), SDS, 2-mercaptolethanol, glycerol, and Coomassie Brilliant Blue to final concentrations of 50 mM, 4 w/v %, 2 v/v %, 12 v/v % and 0.01 w/v % respectively. The mixture was subjected to SDS-polyacrylamide gel electrophoresis using Tricine (Sigma) as a polar buffer (Schagger, H., Anal. Biochem. 166, 368, 1987). After the electrophoresis, the gel was stained with Coomassie Brilliant Blue G-250, and decoloured with 50% (v/v) methanol/10% (v/v) acetic acid.
(1) A result of a test, wherein elastase was added to 100 μM SLPI to an elastase final concentration of 200 μM, and the mixture was incubated at 37° C. up to 192 hours taking samples as time elapsed, is shown in FIG. 20. […]
(3) Next, polypeptides thus generated were electrically transferred to a membrane (Immobilon-p^SQ Millipore) using a Milli Blot-SDE apparatus (Millipore). […] After drying, relevant bands were cut out, and the peptide was cleaved from the N-terminal using an Applied Biosystems Protein-Sequencer (Applied Biosystems; 477A), and after PTH-conversion, the resulting amino acid derivatives were analyzed by a PTH-Amino acid analyzer (Applied Biosystems, 120A) to determine the N-terminal amino acid sequence.
According to the same procedure as described in Example 27, (Asn^55 -Ala^107) SLPI (final concentration 100 μM) was treated with elastase (final concentration 200 μM) at 37° C. for 48 hours. The sample was separated by SDS-PAGE, and electrically transferred to a filter as described in Example 27, a band corresponding to a molecular weight of about 5,500 was cut out, and an N-terminal amino acid sequence was analyzed.

The target of data set [2] is T2, Human plasma kallikrein (Homo sapiens, UniProt P03952).
T2 construct: (7) Human plasma kallikrein (Kabi, Daiichi Kagaku Yakuhin); purchased Kabi (via Daiichi Kagaku Yakuhin); host or cells: human plasma
T2 sequence (P03952 391-638 limits assumed): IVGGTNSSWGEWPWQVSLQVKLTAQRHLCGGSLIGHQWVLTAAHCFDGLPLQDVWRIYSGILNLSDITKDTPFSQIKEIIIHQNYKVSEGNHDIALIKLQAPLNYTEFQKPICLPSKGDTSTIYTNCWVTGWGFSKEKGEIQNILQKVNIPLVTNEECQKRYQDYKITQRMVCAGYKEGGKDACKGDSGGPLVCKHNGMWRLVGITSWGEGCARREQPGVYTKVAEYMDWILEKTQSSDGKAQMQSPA
T2 sequence (P03952 20-390 partner limits assumed): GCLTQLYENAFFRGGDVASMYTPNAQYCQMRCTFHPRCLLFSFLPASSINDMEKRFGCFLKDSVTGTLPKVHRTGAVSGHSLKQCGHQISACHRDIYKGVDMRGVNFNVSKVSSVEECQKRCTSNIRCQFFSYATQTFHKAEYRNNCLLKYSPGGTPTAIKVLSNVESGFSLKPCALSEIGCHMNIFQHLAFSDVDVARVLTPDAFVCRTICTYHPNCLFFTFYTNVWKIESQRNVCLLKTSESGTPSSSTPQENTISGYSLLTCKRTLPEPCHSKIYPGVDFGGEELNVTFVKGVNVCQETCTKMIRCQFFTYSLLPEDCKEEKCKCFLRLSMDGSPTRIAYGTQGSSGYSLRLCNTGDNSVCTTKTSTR
Nature of the data set: Assay for kallikrein inhibitory activity (Example 25). As to conditions: final concentration up to ×10^-5 M; enzyme 1.0 × 10^-7 M. The class given is biochemical. The procedure:
(§1) H. Human plasma kallikrein (Protogene, Funakoshi Yakuhin)
Kallikrein: 50 mM Tris-HCl, 361 mM NaCl, 0.01 mg/ml polybrene (pH 7.8) […]
(§2) Substrate solution: for the enzymes F, G, H and I, the following substrate f, g, h or i, respectively, was dissolved to a final concentration shown in Table 14.
(§3) h. H.D-Pro-Phe-Arg-pNA (Kabi Vitram)
(§4) To wells of an ELISA 96-well microtiter plate, were added a solution of (Arg^59 -Ala^107) SLPI obtained in Example 23 and then the enzyme solution, and the mixture was incubated at 37° C. for 10 minutes. Next, the substrate solution was added to develop the color, whose absorption was then measured at 405 nm. As a control, SLPI was used.

Data set [3] concerns Porcine FXa. Briefly: Assay for Fxa inhibitory activity (Example 25). The class given is biochemical. As to conditions: final concentration up to ×10^-5 M; enzyme 1.0 × 10^-8 M. The procedure:
(§5) I. Porcine FXa (Daichi Seiyaku)
Buffer: Buffer solution for each enzyme is as follow. Thrombin and FXa: 50 mM Tris-HCl, 7.5 mM EDTA-2Na, 175 mM NaCl (pH 8.4) […]
as §2
i. Ratio 1:1 mixture of the following compounds: [drawing 5]
as §4

A further data set addresses T3, Human plasma thrombin (Homo sapiens, UniProt P00734).
T3 construct: (5) Human plasma thrombin (Kabi, Daiichi Kagaku Yakuhin); purchased Kabi (via Daiichi Kagaku Yakuhin); host or cells: human plasma
Nature of the data set: Assay for thrombin inhibitory activity (Example 36). It counts as biochemical. As to conditions: final concentration up to ×10^-5 M; enzyme 3 × 10^-9 M. The procedure:
F. Human plasma thrombin (Sigma)
(§6) Thrombin and FXa: 50 mM Tris-HCl, 7.5 mM EDTA-2Na, 175 mM NaCl (pH 8.4) […]
(§7) Substrate solution: for the enzymes F, G, H and I, the following substrate f, g, h or i, respectively, was dissolved to a final concentration shown in Table 24.
f. H.D-Phe-Pip-Arg-pNA (Kabi Vitrum)
(§8) To wells of an ELISA 96-well microtiter plate, were added a solution of (Arg^58 -Ala^107) SLPI obtained in Example 34 and then the enzyme solution, and the mixture was incubated at 37° C. for 10 minutes. Next, the substrate solution was added to develop the color, whose absorption was then measured at 405 nm. As a control, SLPI was used.

The target in data set [4] is T2, Human plasma kallikrein. Nature of the data set: Assay for kallikrein inhibitory activity (Example 36). As to conditions: final concentration up to ×10^-5 M; enzyme 1.0 × 10^-7 M. It counts as biochemical. The procedure: as §1
Kallikrein: 50 mM Tris-HCl, 361 mM NaCl, 0.01 mg/ml Polybrene (pH 7.8) […]
as §7, §3, §8

Data set [5] relates to Porcine FXa. Nature of the data set: Assay for Fxa inhibitory activity (Example 36). The class given is biochemical. As to conditions: final concentration up to ×10^-5 M; enzyme 1.0 × 10^-8 M. How it is done:
as §5, §6, §7
i. Ratio 1:1 mixture of the following compounds: [drawing 6]
as §8

The next data set deals with elastase and trypsin. As to conditions: R. C. Thompson et al., Proc. Natl. Acad. Sci. USA, 83, 6692; cited from earlier work.

B1: SLPI: Human secretory leukoprotease inhibitor; recombinant SLPI of Reference Example 1 used as control (protein)
chain: SGKSFKAGVCPPKKSAQCLRYKKPECQSDWQCPGKKRCCPDTCGIKCLDPVDTPNPTRRKPGKCPVTYGQCLMLNPPNFCEMDGQCKRDLKCCMGMCGKSCVSPVKA
With B1, the “SDS-PAGE band of SLPI on treatment with elastase” value is recorded as “disappeared significantly” in data set [1] (50 μM SLPI, not less than 100 μM elastase, one hour) and “rapidly disappeared after 45 minute incubation” in data set [1] (100 μM SLPI, 200 μM elastase). Besides, the “selective cleavage sites with elastase from human sputum” value in data set [1] (N-terminal sequencing of SDS-PAGE bands) is “between Ser^15 -Ala^16, and Thr^57 -Arg^58”. The “inhibitory activity to kallikrein” value with Human plasma kallikrein [2] and in the data set with Human plasma kallikrein [4] was “did not exhibit inhibitory activity” throughout. Also, the “inhibitory activity to FXa” value with Porcine FXa [3] and in the data set with Porcine FXa [5] was “did not exhibit inhibitory activity” throughout. Also, the “inhibitory activity to thrombin” value in the data set with Human plasma thrombin is listed as “did not exhibit inhibitory activity”. In addition, on elastase and trypsin, the “Ki(E) compared with Ki(T)” value is reported as “Ki(E) is roughly equivalent to Ki(T)”.
